The values below come from patent US20070178575A1, “Identification Of A Nitrilase From B. Japonicum By Rational Genome Mining And Methods Of Use” (priority 2005, published 2007).

The test system of one series is T1, N#CCc1ccccc1.
T1 construct: His tag (C); made in house; host or cells: E. coli Rosetta(DE3)pLysS (plasmid pLH10.3, pET22b)
The experiment in a line: Measurement of kinetic parameters (Bertholet ammonia assay, purified enzyme). The series is classed as biochemical, Bradyrhizobium japonicum USDA110. As to conditions: other: purified nitrilase, potassium phosphate buffer pH 7.2, 30° C. The protocol:
(§1) The standard assays were carried out by mixing the substrate nitrile and purified nitrilase enzyme in potassium phosphate buffer (100 mM, pH 7.2). The reaction mixture was incubated at 30° C. Samples (100 μL) of the reaction mixture were withdrawn at several time intervals and quenched with 10 μl of 1 M HCl. The amount of ammonia produced in the reaction was measured using Bertholet assay as follows: A 100 μL aliquot of each of the following assay reagents was added subsequently: 0.02 M NaOCl, 0.33 M sodium phenoxide and 0.01% sodium nitroprusside solution. The mixture was then heated at 95° C. for 2 min, cooled rapidly in ice-water bath, and 200 μl of the mixture was then placed in a 96-well plate to measure the absorbance at 640 nm using SpectraMax M2 microplate reader (Molecular Devices). The amount of ammonia released during the hydrolysis was calculated by comparison with the standard curve obtained with standard ammonium chloride solution, and the activity was defined as the number of μmol of ammonia produced in 1 minute by 1 mg of enzyme (μmol·min^−1·mg^−1). […], activity assays were performed with different substrate concentrations, and Vmax and Km were calculated by best fitting the curve to experimental data according to Michaelis equation.

Another series relates to T2, N#CC(O)c1ccccc1.
T2 construct: His tag (C); made in house; host or cells: E. coli Rosetta(DE3)pLysS (plasmid pLH10.3, pET22b)
Described as above. The series is classed as biochemical, Bradyrhizobium japonicum USDA110. The following applies: other: purified nitrilase, potassium phosphate buffer pH 7.2, 30° C. The protocol: as §1

As for “nitrilase bll6402 (Bradyrhizobium diazoefficiens USDA 110)”, in the series on N#CCc1ccccc1, the Km is 100 µM, the Vmax came to 2.2 U/mg, the kcat stood at 1.36 s⁻¹ and the kcat/Km was 13600 s^−1M^−1. Besides, in the series on N#CC(O)c1ccccc1, the Km was determined as 260 µM, the Vmax came to 44.7 U/mg, the kcat worked out at 27.0 s⁻¹ and the kcat/Km came to 104000 M⁻¹ s⁻¹.

By Km is commonly meant the substrate concentration at which the rate is half of its maximum. As a reminder, the kcat is the maximal rate divided by the concentration of active sites.
